Experimental data from patent US10941182 (Amgen, dated 2021).
Starred links: 1 amine or outer side, 2 acyl side, 3 side chain; linkers in the order of their positions; H or OH if unused. Non-standard residues stand in square brackets, D forms with d. Primed or numbered codes have the meaning given here. *: point of attachment. AC4Abu = α-carboxy-4-aminobutyric acid, O=C(C(CCN[*:1])C(=O)[*:3])[*:2]; Oic = O=C(O)[C@@H]1C[C@@H]2CCCC[C@@H]2N1; Phe(4-Cl) = N[C@@H](Cc1ccc(Cl)cc1)C(=O)O; γGlu = O=C(O)[C@H](CCC(=O)[*:2])N[*:1]; NMeR = CN[C@@H](CCCNC(=N)N)C(=O)O; Tridecanoyl = CCCCCCCCCCCCC(=O)*; Cha = N[C@@H](CC1CCCCC1)C(=O)O; Tle = CC(C)(C)[C@H](N)C(=O)O; αMeP = C[C@@]1(C(=O)O)CCCN1; β3hP = O=C(O)C[C@@H]1CCCN1; Nle = CCCC[C@H](N)C(=O)O; Pip′ = not defined here; Deg = CCC(N)(CC)C(=O)O; AEEA = NCCOCCOCC(=O)O; Aib = CC(C)(N)C(=O)O

B1: Apelin polypeptide SEQ ID NO: 413 (peptide)
peptide: Tridecanoyl-[AC4Abu][AEEA][AEEA]QRP[NMeR][Cha]SHKG[Oic][Tle]P[Phe(4-Cl)]-OH
SMILES: CCCCCCCCCCCCC(=O)NCCC(C(=O)O)C(=O)NCCOCCOCC(=O)NCCOCCOCC(=O)N[C@@H](CCC(N)=O)C(=O)N[C@@H](CCCNC(=N)N)C(=O)N1CCC[C@H]1C(=O)N(C)[C@@H](CCCNC(=N)N)C(=O)N[C@@H](CC1CCCCC1)C(=O)N[C@@H](CO)C(=O)N[C@@H](Cc1c[nH]cn1)C(=O)N[C@@H](CCCCN)C(=O)NCC(=O)N1[C@H](C(=O)N[C@H](C(=O)N2CCC[C@H]2C(=O)N[C@@H](Cc2ccc(Cl)cc2)C(=O)O)C(C)(C)C)C[C@@H]2CCCC[C@@H]21
B2: Apelin polypeptide SEQ ID NO: 541 (peptide)
peptide: Tridecanoyl-[γGlu][AEEA][AEEA][dQ]RP[NMeR][Cha]SHKG[Oic][Nle][αMeP][Phe(4-Cl)]-OH
SMILES: CCCCCCCCCCCCC(=O)N[C@@H](CCC(=O)NCCOCCOCC(=O)NCCOCCOCC(=O)N[C@H](CCC(N)=O)C(=O)N[C@@H](CCCNC(=N)N)C(=O)N1CCC[C@H]1C(=O)N(C)[C@@H](CCCNC(=N)N)C(=O)N[C@@H](CC1CCCCC1)C(=O)N[C@@H](CO)C(=O)N[C@@H](Cc1c[nH]cn1)C(=O)N[C@@H](CCCCN)C(=O)NCC(=O)N1[C@H](C(=O)N[C@@H](CCCC)C(=O)N2CCC[C@@]2(C)C(=O)N[C@@H](Cc2ccc(Cl)cc2)C(=O)O)C[C@@H]2CCCC[C@@H]21)C(=O)O
B3: Apelin polypeptide SEQ ID NO: 412 (peptide)
peptide: Tridecanoyl-[AC4Abu][AEEA][AEEA]QRP[NMeR][Cha]SHKG[Oic][Nle][αMeP][Phe(4-Cl)]-OH
SMILES: CCCCCCCCCCCCC(=O)NCCC(C(=O)O)C(=O)NCCOCCOCC(=O)NCCOCCOCC(=O)N[C@@H](CCC(N)=O)C(=O)N[C@@H](CCCNC(=N)N)C(=O)N1CCC[C@H]1C(=O)N(C)[C@@H](CCCNC(=N)N)C(=O)N[C@@H](CC1CCCCC1)C(=O)N[C@@H](CO)C(=O)N[C@@H](Cc1c[nH]cn1)C(=O)N[C@@H](CCCCN)C(=O)NCC(=O)N1[C@H](C(=O)N[C@@H](CCCC)C(=O)N2CCC[C@@]2(C)C(=O)N[C@@H](Cc2ccc(Cl)cc2)C(=O)O)C[C@@H]2CCCC[C@@H]21
B4: Apelin polypeptide SEQ ID NO: 361 (peptide)
peptide: Tridecanoyl-[γGlu][AEEA][AEEA]QRP[NMeR][Cha]SHKGP[Nle]P[Phe(4-Cl)]-OH
SMILES: CCCCCCCCCCCCC(=O)N[C@@H](CCC(=O)NCCOCCOCC(=O)NCCOCCOCC(=O)N[C@@H](CCC(N)=O)C(=O)N[C@@H](CCCNC(=N)N)C(=O)N1CCC[C@H]1C(=O)N(C)[C@@H](CCCNC(=N)N)C(=O)N[C@@H](CC1CCCCC1)C(=O)N[C@@H](CO)C(=O)N[C@@H](Cc1c[nH]cn1)C(=O)N[C@@H](CCCCN)C(=O)NCC(=O)N1CCC[C@H]1C(=O)N[C@@H](CCCC)C(=O)N1CCC[C@H]1C(=O)N[C@@H](Cc1ccc(Cl)cc1)C(=O)O)C(=O)O
B5: Apelin polypeptide SEQ ID NO: 549 (peptide)
peptide: Tridecanoyl-[γGlu][AEEA][AEEA][dQ]RP[NMeR][Cha]SHKG[Oic][Nle][Deg][Phe(4-Cl)]-OH
SMILES: CCCCCCCCCCCCC(=O)N[C@@H](CCC(=O)NCCOCCOCC(=O)NCCOCCOCC(=O)N[C@H](CCC(N)=O)C(=O)N[C@@H](CCCNC(=N)N)C(=O)N1CCC[C@H]1C(=O)N(C)[C@@H](CCCNC(=N)N)C(=O)N[C@@H](CC1CCCCC1)C(=O)N[C@@H](CO)C(=O)N[C@@H](Cc1c[nH]cn1)C(=O)N[C@@H](CCCCN)C(=O)NCC(=O)N1[C@H](C(=O)N[C@@H](CCCC)C(=O)NC(CC)(CC)C(=O)N[C@@H](Cc2ccc(Cl)cc2)C(=O)O)C[C@@H]2CCCC[C@@H]21)C(=O)O
B6: Apelin polypeptide SEQ ID NO: 487 (peptide)
peptide: Tridecanoyl-[γGlu][AEEA][AEEA]QRP[NMeR][Cha]SHKG[Oic][Nle][β3hP][Phe(4-Cl)]-OH
SMILES: CCCCCCCCCCCCC(=O)N[C@@H](CCC(=O)NCCOCCOCC(=O)NCCOCCOCC(=O)N[C@@H](CCC(N)=O)C(=O)N[C@@H](CCCNC(=N)N)C(=O)N1CCC[C@H]1C(=O)N(C)[C@@H](CCCNC(=N)N)C(=O)N[C@@H](CC1CCCCC1)C(=O)N[C@@H](CO)C(=O)N[C@@H](Cc1c[nH]cn1)C(=O)N[C@@H](CCCCN)C(=O)NCC(=O)N1[C@H](C(=O)N[C@@H](CCCC)C(=O)N2CCC[C@H]2CC(=O)N[C@@H](Cc2ccc(Cl)cc2)C(=O)O)C[C@@H]2CCCC[C@@H]21)C(=O)O
B7: Apelin polypeptide SEQ ID NO: 411 (peptide)
peptide: Tridecanoyl-[AC4Abu][AEEA][AEEA]QRP[NMeR][Cha]SHKG[Oic][Nle][Deg][Phe(4-Cl)]-OH
SMILES: CCCCCCCCCCCCC(=O)NCCC(C(=O)O)C(=O)NCCOCCOCC(=O)NCCOCCOCC(=O)N[C@@H](CCC(N)=O)C(=O)N[C@@H](CCCNC(=N)N)C(=O)N1CCC[C@H]1C(=O)N(C)[C@@H](CCCNC(=N)N)C(=O)N[C@@H](CC1CCCCC1)C(=O)N[C@@H](CO)C(=O)N[C@@H](Cc1c[nH]cn1)C(=O)N[C@@H](CCCCN)C(=O)NCC(=O)N1[C@H](C(=O)N[C@@H](CCCC)C(=O)NC(CC)(CC)C(=O)N[C@@H](Cc2ccc(Cl)cc2)C(=O)O)C[C@@H]2CCCC[C@@H]21
B8: Apelin polypeptide SEQ ID NO: 542 (peptide)
peptide: Tridecanoyl-[γGlu][AEEA][AEEA][dQ]RP[NMeR][Cha]SHKG[Oic][Nle][β3hP][Phe(4-Cl)]-OH
SMILES: CCCCCCCCCCCCC(=O)N[C@@H](CCC(=O)NCCOCCOCC(=O)NCCOCCOCC(=O)N[C@H](CCC(N)=O)C(=O)N[C@@H](CCCNC(=N)N)C(=O)N1CCC[C@H]1C(=O)N(C)[C@@H](CCCNC(=N)N)C(=O)N[C@@H](CC1CCCCC1)C(=O)N[C@@H](CO)C(=O)N[C@@H](Cc1c[nH]cn1)C(=O)N[C@@H](CCCCN)C(=O)NCC(=O)N1[C@H](C(=O)N[C@@H](CCCC)C(=O)N2CCC[C@H]2CC(=O)N[C@@H](Cc2ccc(Cl)cc2)C(=O)O)C[C@@H]2CCCC[C@@H]21)C(=O)O

biological target: T1, rat APJ receptor (rat, UniProt Q9JHG3 1-377); assay: cell-based or functional assay
T1 sequence (looked up): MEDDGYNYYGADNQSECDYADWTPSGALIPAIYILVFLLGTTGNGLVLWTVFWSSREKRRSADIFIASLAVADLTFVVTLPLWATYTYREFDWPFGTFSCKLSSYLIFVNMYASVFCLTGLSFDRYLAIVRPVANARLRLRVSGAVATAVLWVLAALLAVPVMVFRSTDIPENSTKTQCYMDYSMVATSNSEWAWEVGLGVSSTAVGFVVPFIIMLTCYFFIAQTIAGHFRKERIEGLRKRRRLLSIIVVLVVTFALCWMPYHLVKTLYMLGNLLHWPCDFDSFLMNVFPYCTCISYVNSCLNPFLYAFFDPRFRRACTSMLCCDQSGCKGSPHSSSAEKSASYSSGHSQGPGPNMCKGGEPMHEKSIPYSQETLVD

Row | Binder | EC50 Rat APJ Receptor (GTPγS assay) [nM]
1 | B1 | 1.54
2 | B2 | 1.98
3 | B3 | 0.436
4 | Tridecanoyl-[γGlu][AEEA][AEEA][dQ]RP[NMeR][Cha]SHKG[Pip′][Nle][β3hP][Phe(4-Cl)]-OH [Apelin polypeptide SEQ ID NO: 544] | 5.61
5 | B4 | 0.086
6 | B5 | 4
7 | Tridecanoyl-[γGlu][AEEA][AEEA]QRP[NMeR][Cha]SHKG[Oic][Nle][Pip′][Phe(4-Cl)]-OH [Apelin polypeptide SEQ ID NO: 445] | 4.71
8 | Tridecanoyl-[γGlu][AEEA][AEEA][dQ]RP[NMeR][Cha]SHKG[Pip′][Nle][Aib][Phe(4-Cl)]-OH [Apelin polypeptide SEQ ID NO: 499] | 0.0852
9 | B6 | 8.19
10 | B7 | 2.94
11 | B8 | 16.1

biological target: T2, human APJ receptor (human, UniProt P35414 1-380); assay: cell-based or functional assay
T2 sequence (looked up): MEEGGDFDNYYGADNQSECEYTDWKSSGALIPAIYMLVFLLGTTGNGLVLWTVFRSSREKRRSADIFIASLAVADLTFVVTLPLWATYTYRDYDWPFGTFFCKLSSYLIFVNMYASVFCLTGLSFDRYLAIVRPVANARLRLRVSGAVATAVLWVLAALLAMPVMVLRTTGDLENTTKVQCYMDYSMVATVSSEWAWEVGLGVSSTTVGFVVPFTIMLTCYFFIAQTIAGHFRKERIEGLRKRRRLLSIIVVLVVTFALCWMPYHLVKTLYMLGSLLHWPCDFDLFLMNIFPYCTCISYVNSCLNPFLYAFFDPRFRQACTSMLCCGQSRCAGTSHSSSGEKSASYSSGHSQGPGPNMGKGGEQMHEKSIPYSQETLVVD

Row | Binder | EC50 Human APJ Receptor (GTPγS assay) [nM]
12 | B1 | 1.53
13 | B2 | 0.938
14 | B3 | 0.614
15 | Tridecanoyl-[γGlu][AEEA][AEEA][dQ]RP[NMeR][Cha]SHKG[Pip′][Nle][β3hP][Phe(4-Cl)]-OH [Apelin polypeptide SEQ ID NO: 544] | 2.42
16 | B4 | 0.308
17 | B5 | 1.2
18 | Tridecanoyl-[γGlu][AEEA][AEEA]QRP[NMeR][Cha]SHKG[Oic][Nle][Pip′][Phe(4-Cl)]-OH [Apelin polypeptide SEQ ID NO: 445] | 4.29
19 | Tridecanoyl-[γGlu][AEEA][AEEA][dQ]RP[NMeR][Cha]SHKG[Pip′][Nle][Aib][Phe(4-Cl)]-OH [Apelin polypeptide SEQ ID NO: 499] | 0.0236
20 | B6 | 1.83
21 | B7 | 2.1
22 | B8 | 5.19
